According to patent US20260209362A1 (VIB VZW, published 2026):

Columns and labels:
[1] = molecular target: T1, biotinylated recombinant human IL-12Rβ2 (human, UniProt Q99665 24-622, random biotinylated); experiment: BLI (Octet), periplasmic extract on biotinylated hIL-12Rβ2 on streptavidin tips
T1 construct: Recombinant protein produced in-house, biotinylated; also called hIL-12RB2; human IL-12RB2
T1 sequence: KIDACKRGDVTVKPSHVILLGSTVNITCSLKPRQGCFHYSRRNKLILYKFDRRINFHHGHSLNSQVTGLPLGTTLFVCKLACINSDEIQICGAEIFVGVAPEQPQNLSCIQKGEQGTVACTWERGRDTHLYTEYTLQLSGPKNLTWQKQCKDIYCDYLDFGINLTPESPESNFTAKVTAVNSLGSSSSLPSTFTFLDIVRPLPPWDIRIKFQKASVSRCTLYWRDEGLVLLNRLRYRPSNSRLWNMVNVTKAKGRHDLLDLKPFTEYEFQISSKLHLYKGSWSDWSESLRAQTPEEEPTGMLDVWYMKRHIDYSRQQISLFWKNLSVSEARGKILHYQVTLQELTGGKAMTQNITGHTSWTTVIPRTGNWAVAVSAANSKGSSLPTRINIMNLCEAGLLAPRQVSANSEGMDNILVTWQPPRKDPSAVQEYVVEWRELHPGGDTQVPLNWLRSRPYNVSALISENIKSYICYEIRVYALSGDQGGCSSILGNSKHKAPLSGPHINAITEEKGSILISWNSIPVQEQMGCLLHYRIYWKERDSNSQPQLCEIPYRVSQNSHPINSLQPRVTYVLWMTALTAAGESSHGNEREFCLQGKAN

[2] = molecular target: T2, biotinylated recombinant mouse IL-12Rβ2 (mouse, UniProt P97378 24-637, random biotinylated); experiment: BLI (Octet), periplasmic extract on biotinylated mIL-12Rβ2 on streptavidin tips
T2 construct: Recombinant protein produced in-house, biotinylated; also called mIL-12RB2; mouse IL-12RB2
T2 sequence: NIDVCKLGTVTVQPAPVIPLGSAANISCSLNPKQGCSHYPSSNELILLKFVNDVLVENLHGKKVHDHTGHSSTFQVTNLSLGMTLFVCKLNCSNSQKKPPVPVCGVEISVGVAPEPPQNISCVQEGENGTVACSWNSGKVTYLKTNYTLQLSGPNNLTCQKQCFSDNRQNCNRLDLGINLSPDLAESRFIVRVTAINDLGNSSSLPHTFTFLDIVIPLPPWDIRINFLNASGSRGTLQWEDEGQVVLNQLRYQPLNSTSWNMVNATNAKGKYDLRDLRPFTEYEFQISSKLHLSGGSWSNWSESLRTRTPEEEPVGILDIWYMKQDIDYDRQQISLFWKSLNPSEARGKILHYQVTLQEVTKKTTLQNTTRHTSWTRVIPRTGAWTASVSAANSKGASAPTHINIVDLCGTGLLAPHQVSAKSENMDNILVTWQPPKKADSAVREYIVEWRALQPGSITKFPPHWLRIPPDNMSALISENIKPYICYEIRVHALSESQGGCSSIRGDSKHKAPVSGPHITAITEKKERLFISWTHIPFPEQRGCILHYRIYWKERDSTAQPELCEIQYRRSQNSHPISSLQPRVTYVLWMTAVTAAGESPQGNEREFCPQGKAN

[3] = molecular target: T1, biotinylated recombinant human IL-12Rβ2; experiment: ELISA, periplasmic extract on biotinylated hIL-12Rβ2, signal over control wells
[4] = molecular target: T2, biotinylated recombinant mouse IL-12Rβ2; experiment: ELISA, periplasmic extract on biotinylated mIL-12Rβ2, signal over control wells
[5] = molecular target: T1, biotinylated recombinant human IL-12Rβ2; experiment: BLI (Octet), periplasmic extract on biotinylated hIL-12Rβ2 on streptavidin tips, 1:1 model
[6] = molecular target: T2, biotinylated recombinant mouse IL-12Rβ2; experiment: BLI (Octet), periplasmic extract on biotinylated mIL-12Rβ2 on streptavidin tips, 1:1 model

Row | Binder | Response [1] | Response [2] | ELISA binding hIL-12RB2/control [3] [ratio] | ELISA binding mIL-12RB2/control [4] [ratio] | koff [5] [s⁻¹] | koff [6] [s⁻¹]
1 | anti-IL-12Rβ2 VHH clone 21051 (VHH, not shown: small tags and cut ends, tested as periplasmic extract; also called 3CAHM40) VHH: QVQLQESGGGSVQAGGSLRLSCAVSGRTVSDYAMGWFRQAPGKEREFVAAMSSSETTVYPNSMKGRITISRDNAKNAVYLQLNALKPEDTAVYYCSMGPIATFQGLARQNEYHYWGQGTQVTVSS | 1.32 | 0.809 | 3.73 | 11.9 | 0.00578 | 0.00644
2 | anti-IL-12Rβ2 VHH clone 21063 (VHH, not shown: small tags and cut ends, tested as periplasmic extract; also called 3CRHM133) VHH: QVQLQESGGGSVQAGGSLRLSCAVSGRPVSDYAMGWFRQAPGKEREFVAALSASDTTVYPNSVKGRITISRDNAKNAVDLQMNALKPEDTAVYYCAMGPIGTFQGLARQNEYHYWGQGTQVTVSS | 1.13 | 0.97 | 3.46 | 3.92 | 0.00389 | 0.00667
3 | anti-IL-12Rβ2 VHH clone 21065 (VHH, not shown: small tags and cut ends, tested as periplasmic extract; also called 3CRHM240) VHH: QVQLQESGGGSVQAGGSLRLSCAVSGRTVSDYAMGWFRQAPGKEREFVVAMSSSETTVYTNSVKGRITISRDNAKNAVYLQMNALKPEDTAVYYCSMGPITTFQGLARQNEYHYWGQGTQVTVSS | 1.5 | 1.05 | 3.78 | 5.72 | 0.00457 | 0.00483
4 | anti-IL-12Rβ2 VHH clone 21060 (VHH, not shown: small tags and cut ends, tested as periplasmic extract; also called 3CRHM73) VHH: QVQLQESGGGLVQAGGSLSLSCAASGSAFRLNFMGWYRQAPGKQRELVAAINSGGTEIYHDSVKGRFTISRDNADSTVWLQMNSLKPDDTAVYYCAADRGISWSKLAGGMDYWGKGTQVTVSS | 1.45 | 0.944 | 6.9 | 26.3 | 0.00605 | 0.00605
